Assay results from patent publication US20050089926A1, “Ligand sensing fluorescent acetylcholinesterase for detection of organophosphate activity” (priority 2002, published 2005).
Where a chain is given by its changes, count along the chain named. Names may count otherwise. “And” between values parts separate entries of the source, which are not always exact repeats. Identical values can stand only once. Like-named read-outs stand apart in the source and are kept apart here.

B1: E84C (protein, UniProt P21836 32-614, looked up, variant E84C)
Acetylcholinesterase: EGREDPQLLVRVRGGQLRGIRLKAPGGPVSAFLGIPFAEPPVGSRRFMPPEPKRPWSGVLDATTFQNVCYQYVDTLYPGFEGTCMWNPNRELSEDCLYLNVWTPYPRPASPTPVLIWIYGGGFYSGAASLDVYDGRFLAQVEGAVLVSMNYRVGTFGFLALPGSREAPGNVGLLDQRLALQWVQENIAAFGGDPMSVTLFGESAGAASVGMHILSLPSRSLFHRAVLQSGTPNGPWATVSAGEARRRATLLARLVGCPPGGAGGNDTELIACLRTRPAQDLVDHEWHVLPQESIFRFSFVPVVDGDFLSDTPEALINTGDFQDLQVLVGVVKDEGSYFLVYGVPGFSKDNESLISRAQFLAGVRIGVPQASDLAAEAVVLHYTDWLHPEDPTHLRDAMSAVVGDHNVVCPVAQLAGRLAAQGARVYAYIFEHRASTLTWPLWMGVPHGYEIEFIFGLPLDPSLNYTTEERIFAQRLMKYWTNFARTGDPNDPRDSKSPQWPPYTTAAQQYVSLNLKPLEVRRGLRAQTCAFWNRFLPKLLSATDTLDEAERQWKAEFHRWSSYMVHWKNQFDHYSKQERCSDL
B2: A262C (protein, UniProt P21836 32-614, looked up, variant A262C)
Acetylcholinesterase: B1 Acetylcholinesterase with C84E, A262C
B3: Wild Type (protein, UniProt P21836 32-614, looked up)
Acetylcholinesterase: B1 Acetylcholinesterase with C84E
B4: H287C (protein, UniProt P21836 32-614, looked up, variant H287C)
Acetylcholinesterase: B1 Acetylcholinesterase with C84E, H287C

What was measured:
[1] = test system: E81C and E84C AChEs; test: BW284c51 binding, stopped-flow tryptophan fluorescence quenching (koff/kon); set-up: species or system mouse; conditions: unlabeled mutant
Protocol: (§1) Association and dissociation rate constants of edrophonium and […] with E81C and E84C AChEs were determined from changes in the tryptophan fluorescence using a stopped-flow spectrophotometer as described previously (29). Time-dependent decreases in tryptophan fluorescence were observed upon excitation at 276 nm by means of a 305 nm emission cut-off filter.

[2] = test system: wild type and mutant mouse AChEs; test: Acetylthiocholine hydrolysis kinetics (Ellman method); format: biochemical; conditions: means ± S.D.
Protocol: Assay of Catalytic Activity—The spectrophotometric method of Ellman was used (25), and kinetic constants for acetylthiocholine hydrolysis were determined by fitting the observed rates as described (26). Titration of active sites with known concentrations of the irreversible phosphorylating agent, MEPQ, was accomplished by the method of Levy and Ashani (27).

[3] = target: T1, acrylodan-labeled E81C and E84C (Mus musculus, UniProt P21836, E115C); format: binding; conditions: acrylodan-conjugated E84C
T1 construct: made in house; host or cells: HEK293
Protocol: (§2) TFK^+ binding to cysteine-substituted enzymes, both free and modified with acrylodan, was also examined (Table II). For E81C and E84C, the association rate constants (kon) for TFK^+ were obtained from measurements of enzyme activity. […] For acrylodan-labeled mutants, kon was measured from the time-dependent decrease of fluorescence signal (FIG. 3).

[4] = test system: E81C and E84C AChEs; test: Edrophonium binding, stopped-flow tryptophan fluorescence quenching (koff/kon); set-up: species or system mouse; conditions: unlabeled mutant
Protocol: as §1

[5] = test system: mouse AChE; test: TFK+ inhibition, association rate from residual enzyme activity; format: biochemical; conditions: for TFK+ kon: unlabeled enzyme, from measurements of enzyme activity
Protocol: Trifluoroacetophenone Inhibition—Picomolar amounts of enzyme in 0.01% bovine serum albumin in 0.1 M sodium phosphate buffer, pH 7.0, were reacted with TFK^+ in the absence of substrate. Inhibition was monitored by measuring residual enzyme activity by removal of aliquots during the course of the reaction. Bimolecular rate constants of inhibition were determined by nonlinear fit of the data (28). ΔF=ΔFmax(Et+It+Kd−/(Et+It+Kd)^2−4 EtIt∫^0.5)(2Et)^−1 (Eq. 1)
as §2

[6] = target: T2, acrylodan-labeled mouse AChE mutants (Mus musculus, UniProt P21836, E115C); conditions: edrophonium, tacrine or huperzine bound
T2 construct: made in house; host or cells: HEK293

[7] = test system: wild type and mutant mouse AChEs; conditions: data from Boyd et al. 2000, cited from earlier work; for Km / kcat: acetylthiocholine hydrolysis; for b: relative catalytic turnover of the ternary complex; for KSS: substrate inhibition or activation constant

Molecule	BW284c51 Kd ratio to wild type (head is formula MATH:3) [1]	Km ([2]; acetylthiocholine hydrolysis) [µM]	kcat ([2]; acetylthiocholine hydrolysis)	b ([2]; relative catalytic turnover of the ternary complex)	KSS ([2]; substrate inhibition or activation constant) [mM]	reduction of kon of TFK+ by acrylodan conjugation compared with unconjugated E84C [3] [fold]	Edrophonium Kd ratio to wild type (head is formula MATH:2) [4]	TFK+ kon [5]	TFK+ kon ratio to wild type (head is formula MATH:1) ([5]; unlabeled mutant)	bathochromic shift upon inhibitor binding [6] [nm]	Km [7] [µM]	kcat [7]	b [7]	KSS [7] [mM]
B1	18	190 ± 9	1.9 ± 0.4 10^5/min	0.2 ± 0.05	26 ± 2	7	2 and 2.2	93 10^9M^−1min^−1	1.6	33				
B2											59 ± 4	1.6 ± 0.1 10^5/min	0.2 ± 0.04	11 ± 3
B3								150 10^9M^−1min^−1			54 ± 16	1.6 ± 0.4 10^5/min	0.2 ± 0.07	14 ± 5
B4											58 ± 7	1.8 ± 0.2 10^5/min	0.2 ± 0.06	12 ± 6
